Data reported in publication PMC2599858.

What was measured:
eGFP-CaMKII = eGFP-CaMKII (UniProt P11275); assay: number and brightness
[1] = molecular target: nonlabeled αCaMKII (Ca2+/CaM-dependent protein kinase II, alpha) (UniProt P11275); assay: number and brightness

Sequence of eGFP-CaMKII (P11275 whole entry): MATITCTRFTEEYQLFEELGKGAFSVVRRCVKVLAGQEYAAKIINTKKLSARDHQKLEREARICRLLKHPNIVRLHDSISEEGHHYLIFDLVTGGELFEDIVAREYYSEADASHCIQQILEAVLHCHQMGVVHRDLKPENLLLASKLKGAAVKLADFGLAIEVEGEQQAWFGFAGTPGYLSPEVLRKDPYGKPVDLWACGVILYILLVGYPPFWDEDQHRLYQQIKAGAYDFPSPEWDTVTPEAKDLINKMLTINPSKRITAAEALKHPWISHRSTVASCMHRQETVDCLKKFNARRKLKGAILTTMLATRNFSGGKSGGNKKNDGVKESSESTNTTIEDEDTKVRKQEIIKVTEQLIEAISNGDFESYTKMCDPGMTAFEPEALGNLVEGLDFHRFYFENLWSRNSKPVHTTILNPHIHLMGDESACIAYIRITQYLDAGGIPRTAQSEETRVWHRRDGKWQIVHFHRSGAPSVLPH

stoichiometry N (eGFP-CaMKII)	molecular brightness, times that of eGFP (times that of eGFP) [1]	Substance
> 3		eGFP-CaMKII (from UniProt P11275 1-478) (enzyme)
	3	enhanced green fluorescent protein (eGFP)-CaM (from UniProt P0DP23 1-149) (natural protein)
